We go through one protein from publication PMC7810915 (Computational and Structural Biotechnology Journal, 2019).

The series concerns the molecule itself. Nature of the series: NMR relaxation.

B1: Smad5 MH1 domain (wild type) (domain or fragment, Homo sapiens)
chain: GPSFTSPAVKRLLGWKQGDEEEKWAEKAVDALVKKLKKKKGAMEELEKALSSPGQPSKCVTIPRSLDGRLQVSHRKGLPHVIYCRVWRWPDLQSHHELKPLDICEFPFGSKQKEVCINPYHYKRVESPVLPP
B1: the Kd (as a rule, the equilibrium constant for the complex coming apart) came to 8.3 ± 1.5 mM.
